Here are results for one molecule from patent publication US20170129954A1 (PROTHENA BIOSCIENCES, published 2017).

Assay [1] deals with T1, human MCAM domain 1 (amino acids 19-129) hFc (human, UniProt P43121 19-129).
T1 construct: One of the various MCAMhFc domains captured on anti-human IgG Fc biosensors; also called MCAMhFc domain; not shown: human IgG Fc (hFc)
T1 sequence: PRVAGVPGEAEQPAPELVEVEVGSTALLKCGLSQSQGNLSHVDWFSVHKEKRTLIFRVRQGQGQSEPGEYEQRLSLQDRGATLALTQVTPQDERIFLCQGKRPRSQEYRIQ
Kind of assay: ForteBio BLI, MCAMhFc domains on anti-human IgG Fc biosensors. The text has this:
(§1) The following protocol was used: ForteBio anti-human IgG Fc biosensors were used to immobilize various MCAMhFc domains including full length MCAMhFc protein on to biosensor surface. […] After loading these samples into a black 96 well plate, the Octet Red was programmed as follows: 60 seconds for baseline #1; 180 seconds for loading various domains; 60 seconds for baseline #2; 180 seconds for association of antibody to domain; and 240 seconds for dissociation of antibody from domain.
(§2) 1. MCAMhFc final concentration @ 5 ug/ml [0329] […] 3. ForteBio anti-human IgG Fc Capture (AHC) biosensors for kinetics experiments, cat #18-5060 [0331] 4. Block 96 well plate from Greiner Bio-one, cat #655209 [0332] 5. ForteBio Octet Red machine [0333] 6. Fresh tissue culture medium, DMEM with 20% FCS, was used as buffer for dilution The results from these analyses are as follows.
(In general: In BLI a coated tip is dipped into the sample, and binding shifts an interference pattern.)

For assay [2], the target named is T2, combination of human MCAM domains 1 and 2 (amino acids 19-242) hFc (human, UniProt P43121 19-242).
T2 construct: One of the various MCAMhFc domains captured on anti-human IgG Fc biosensors; also called combination of domains 1 and 2; MCAMhFc domain; not shown: human IgG Fc (hFc)
T2 sequence: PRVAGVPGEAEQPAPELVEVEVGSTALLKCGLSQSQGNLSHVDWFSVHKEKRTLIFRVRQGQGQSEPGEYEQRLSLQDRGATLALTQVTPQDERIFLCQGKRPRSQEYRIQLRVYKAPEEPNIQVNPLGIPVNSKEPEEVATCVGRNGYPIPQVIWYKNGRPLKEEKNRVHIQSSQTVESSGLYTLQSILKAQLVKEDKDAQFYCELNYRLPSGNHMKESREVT
Described as above.
Description: as §1, §2

Assay [3] addresses T3, human MCAM C272A mutant (shotgun mutagenesis library, on BHK cells) (human, UniProt P43121 24-646).
T3 chain: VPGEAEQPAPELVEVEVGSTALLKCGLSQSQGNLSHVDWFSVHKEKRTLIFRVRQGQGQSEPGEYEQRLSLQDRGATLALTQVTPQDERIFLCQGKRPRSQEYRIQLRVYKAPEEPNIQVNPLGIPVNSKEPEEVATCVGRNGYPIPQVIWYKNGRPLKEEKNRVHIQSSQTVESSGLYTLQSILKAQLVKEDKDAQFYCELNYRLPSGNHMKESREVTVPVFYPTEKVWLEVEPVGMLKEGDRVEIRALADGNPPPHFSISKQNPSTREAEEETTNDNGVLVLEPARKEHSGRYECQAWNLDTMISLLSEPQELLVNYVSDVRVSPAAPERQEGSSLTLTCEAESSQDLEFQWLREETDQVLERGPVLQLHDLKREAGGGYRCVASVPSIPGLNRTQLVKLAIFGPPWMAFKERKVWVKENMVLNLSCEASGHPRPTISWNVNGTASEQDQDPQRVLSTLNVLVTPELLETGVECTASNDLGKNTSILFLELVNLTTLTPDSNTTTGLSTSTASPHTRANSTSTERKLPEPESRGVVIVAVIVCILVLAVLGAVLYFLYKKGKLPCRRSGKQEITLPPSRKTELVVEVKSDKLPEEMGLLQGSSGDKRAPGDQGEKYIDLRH
Kind of assay: shotgun mutagenesis library, immunofluorescence on BHK cells, triplicate, background-subtracted and normalized to WT. The protocol: (§3) The mutation library was assayed for surface expression (mouse sera binding) and monoclonal antibody binding, in triplicate. Each raw data point was background-subtracted and normalized to the wild type MCAM reactivity values. The mean monoclonal antibody binding value for each clone is plotted as a function of its mean surface expression value (FIG. 1, gray diamonds). Thresholds of <30% monoclonal antibody reactivity and >50% mouse sera binding were applied to identify clones (FIG. 1, black diamonds) that were negative for monoclonal antibody binding but positive for surface expression.
(§4) Residues involved in antibody binding were identified as those that were negative for monoclonal antibody binding (<30% WT) but positive for surface expression (>50% WT) (Table 4). The mean reactivity (and standard deviation) were determined for each critical residue.

Assay [4] concerns the target T4, human MCAM V340A mutant (shotgun mutagenesis library, on BHK cells) (human, UniProt P43121 24-646).
T4 chain: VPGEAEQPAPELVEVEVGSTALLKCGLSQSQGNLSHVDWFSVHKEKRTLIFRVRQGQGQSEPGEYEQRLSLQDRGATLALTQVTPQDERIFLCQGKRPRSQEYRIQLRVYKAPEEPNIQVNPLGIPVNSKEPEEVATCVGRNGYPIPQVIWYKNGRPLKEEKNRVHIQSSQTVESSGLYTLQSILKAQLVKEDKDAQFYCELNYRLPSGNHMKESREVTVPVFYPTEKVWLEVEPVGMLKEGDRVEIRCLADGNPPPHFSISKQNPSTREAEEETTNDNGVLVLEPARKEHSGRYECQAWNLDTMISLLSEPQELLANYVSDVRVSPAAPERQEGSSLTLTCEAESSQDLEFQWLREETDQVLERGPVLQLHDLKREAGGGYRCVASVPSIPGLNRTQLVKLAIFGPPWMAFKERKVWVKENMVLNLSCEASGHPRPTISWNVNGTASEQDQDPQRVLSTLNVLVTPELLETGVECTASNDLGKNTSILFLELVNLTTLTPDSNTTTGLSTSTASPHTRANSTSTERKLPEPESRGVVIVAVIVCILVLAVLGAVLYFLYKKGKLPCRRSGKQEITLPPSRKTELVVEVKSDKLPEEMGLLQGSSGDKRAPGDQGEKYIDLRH
The assay is described as above. The protocol: as §3, §4

B1: mouse anti-human MCAM monoclonal antibody clone 1749.1.3 (antibody, V domains shown)
VH: DVKLVESGGDLVKPGGSLKLSCAASGFTFSSYIMSWVRQTPEKRLEWVATISSGGSSTYYPDSVKGRFTISRDNAKNTLYLQMSSLKSEDTAMYYCTRDDDYDVKVFAYWGQGTLVTVSA
VL: DIVMSQSPSSLAVSAGEKVTMNCKSSRSLLNSRIRKNYLAWYQQKPGQSPKLLIYWASTRESGVPDRFTGSGSGTDFTLTISSVQAEDLAVYYCKQSYNLLTFGAGTKLELK
notes: Mouse hybridoma monoclonal antibody; also called m1749
On to B1, for which the binding result in assay [1] and in assay [2] was “no binding (tested: 5 ug/ml)” each time. In addition, the “mean reactivity (% of wild type MCAM), standard deviation in brackets” value is 7.6 % of WT in assay [3] and 8.7 % of WT in assay [4].
